± gives the standard deviation.
Assay: protein stability index of a GFP-peptide fusion (GPS, HEK-293T) (PSI 1-6); higher = more stable
[1] = treatment: DMSO, c terminus: a fixed tail appended
[2] = treatment: MLN4924 1 uM, 8 h, c terminus: a fixed tail appended
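Also: 24-mer peptide tiles fused after GFP, lentivirally expressed, FACS-sorted into six equal bins by GFP/DsRed ratio, decoded by Illumina sequencing, PSI is the read-weighted mean bin number.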

Row | Sequence | protein stability index [1] | protein stability index [2] | protein stability index (treatment: DMSO, c terminus: native) | protein stability index (treatment: MLN4924 1 uM, 8 h, c terminus: native)
1 | RLQSSFWIVDKQHVYIGSAGLDWQ [PLD5] | 2.69 ± 0.46 | 2.26 ± 0.38 | – | –
2 | LQEPGEPQGPPASPSCPEEALAAT [PXN] | 5.44 ± 0.22 | 5.278 ± 0.023 | – | –
3 | SRPTGQQLESLGLLAPGEQSLPCT [KISS1] | 4.29 ± 0.16 | 4.38 ± 0.25 | – | –
4 | GYSMNFNMSSSRGPLPVKRGPPPR [RBMX] | 3.16 ± 0.23 | 3.82 ± 0.72 | – | –
5 | QETLTNISAVNYDFDEEYFSNTSE [DAPK3] | 5.41 ± 0.26 | 5.41 ± 0.21 | – | –
6 | SLSSIATCVYIAEIAPQHRRGLLV [SLC2A12] | 2.6 ± 0.81 | 2.6 ± 0.52 | – | –
7 | KRQVPTEQAQAYAERLGVTFFEVS [RAB40B] | 2.99 ± 0.22 | 3.23 ± 0.23 | – | –
8 | GSSLSGSLCSLLESQSTSLRGSYN [LURAP1L] | 3.07 ± 0.14 | 2.87 ± 0.29 | – | –
9 | LKLVSFSKLCTSYSHSSTRDGRRD [GOSR1] | 2.81 ± 0.3 | 2.79 ± 0.35 | – | –
10 | SHRFPEDHDPTIEDAYKIRIRIDD [RIT1] | 3.98 ± 0.19 | 4.28 ± 0.31 | – | –
11 | SAPQQNGQPLRPLVPDASKQRLME [PDLIM7] | 4.73 ± 0.34 | 4.89 ± 0.33 | – | –
12 | LLCGAAFGRLVANVLKSYIGLGHI [CLCN6] | 2.66 ± 0.42 | 3.14 ± 0.46 | – | –
13 | LKTFVKQTDHIKGIRQITSDDFCT [GFOD1] | 3.29 ± 0.4 | 3.26 ± 0.23 | – | –
14 | NWTVAFAPDGSYFAWSQGHRTVKL [WSB1] | 2.42 ± 0.53 | 2.47 ± 0.44 | – | –
15 | MQEFFGLKVTGKPDAETLKVMKQP [MMP1] | 3.47 ± 0.15 | 3.53 ± 0.34 | – | –
16 | NMSREPFSTRALVLSILHATLPGI [SOAT2] | 3.18 ± 0.55 | 2.93 ± 0.62 | – | –
17 | INILQNEKSHQVLAQLLDTLLAIG [INTS4] | 2.43 ± 0.31 | 2.17 ± 0.2 | – | –
18 | DDATCRLYDLRADREVAIYSKESI [GNB5] | 3.51 ± 0.24 | 3.4 ± 0.17 | – | –
19 | SDSGSDKSLEGGGTAFDAETDSEM [SMG5] | 5.54 ± 0.15 | 5.62 ± 0.19 | – | –
20 | PFVCPECGQPCSQKSGLIRHQKIH [ZNF649] | 4.65 ± 0.3 | 4.78 ± 0.3 | – | –
21 | KTIEELRDKILTATIENNRVILEI [KRT13] | 2.57 ± 0.46 | 2.71 ± 0.64 | – | –
22 | LERLAYLHARLRELLCELGRPSMV [PRAME] | 2.42 ± 0.16 | 2.3 ± 0.33 | – | –

Row | Sequence | protein stability index [1] | protein stability index [2] | protein stability index (treatment: DMSO, c terminus: native) | protein stability index (treatment: MLN4924 1 uM, 8 h, c terminus: native)
23 | SAFSSRGSLSLSFEREPSTSDLGT [RIPK4] | 4.01 ± 0.14 | 4.13 ± 0.14 | – | –
24 | EENELTSLAEDLLGLTDPNGGLA [TRADD] | – | – | 5.14 ± 0.19 | 5.06 ± 0.43
25 | EVEGVKNIMTQNVERILARGENLE [VAMP8] | 4.68 ± 0.15 | 4.46 ± 0.16 | – | –
26 | YLASLCMCFGPKKVKPAEAETAGA [SLC29A1] | 2.6 ± 0.28 | 2.83 ± 0.23 | – | –
27 | GDLGDPFHLGLEDILMEEEEGVVG [TFE3] | 5.33 ± 0.34 | 5.3 ± 0.2 | – | –
28 | GIRKEDLDIVCERFTTSKLQSFED [MLH1] | 3.6 ± 0.22 | – | – | –
29 | VRCEALTGELETLKERCAQDACQA [CCDC89] | 4.43 ± 0.39 | 4.25 ± 0.18 | – | –
30 | MVQQIQENSVEFEACLVAQCDALI [TRIM9] | 2.9 ± 0.35 | 2.97 ± 0.36 | – | –
31 | SCGGDGGIVVWNMDVERQETPEWL [WDFY2] | 3.82 ± 0.34 | 3.79 ± 0.18 | – | –
32 | RDASDPLAGAALEPAGGGRSREAR [SMAD6] | 5.39 ± 0.19 | 5.44 ± 0.2 | – | –
33 | AAVVHHFESFPAGSTLIFYKYCDH [TOR1AIP2] | 2.37 ± 0.43 | 2.23 ± 0.52 | – | –
34 | ERNRMHGLNDALDNLRKVVPCYSK [NEUROD6] | 2.75 ± 0.47 | 3.02 ± 0.32 | – | –
35 | PLFEDVQMLRKTVKDEAHQAQKDP [PPP2R5C] | 5.37 ± 0.22 | 5.3 ± 0.17 | – | –
36 | DCCQVSAPNRFFQKLNVFKNFIGL [NLN] | 2.09 ± 0.51 | 2.17 ± 0.21 | – | –
37 | VAVNGESVETLDHDSVVEMIRKGG [PDZK1] | 4.61 ± 0.27 | 4.59 ± 0.24 | – | –
38 | QQLVSFSESGSLGNSSGSDVTSLS [ISL2] | 4.79 ± 0.19 | 4.72 ± 0.37 | – | –
39 | PTDYQVNIQIIEYEKKQTLGQNDT [BTBD1] | 3.76 ± 0.27 | 3.91 ± 0.13 | – | –
40 | EGIRQTEYTLTGLKFDMKYMNFRV [FSD1] | 2.67 ± 0.54 | 2.56 ± 0.52 | – | –
41 | GTLIGVGQSVTAVGRIIAPLLSGV [MFSD9] | 2.03 ± 0.17 | 2.2 ± 0.29 | – | –
42 | SRSSLMPLRNDVDKRGETTSASLL [SLC2A12] | 4.55 ± 0.15 | 4.56 ± 0.11 | – | –
43 | ETGKLLWKVRYDTFIVSCKFSPDG [WDR88] | 2.55 ± 0.37 | 2.04 ± 0.26 | – | –
44 | VKVPTTLAEYCIKTKVPSNDNSSD [UBE2R2] | 4.41 ± 0.21 | 4.63 ± 0.17 | – | –

Row | Sequence | protein stability index [1] | protein stability index [2] | protein stability index (treatment: DMSO, c terminus: native) | protein stability index (treatment: MLN4924 1 uM, 8 h, c terminus: native)
45 | DKLSQKSSSSKLSRSPLKIVKKPK [EPB41L3] | 4.3 ± 0.66 | 4.79 ± 0.23 | – | –
46 | MDDDFGVVKEEISDDNAKLPCFNG [DVL3] | 5.18 ± 0.19 | 5.21 ± 0.15 | – | –
47 | QQSQGWVHYMIHEPEPHILLFRRP [CKS1B] | 2.11 ± 0.35 | 1.96 ± 0.22 | – | –
48 | GLSPRVIRVWFQNKRCKDKKKSIL [ISL2] | 2.13 ± 0.45 | 2.36 ± 0.085 | – | –
49 | PPDKGEEQVNFCESSNDFGPYEGG [ZBTB22] | 5.53 ± 0.098 | 5.41 ± 0.26 | – | –
50 | RWLPEKRANPCLSSSNEHAAPAAK [ELOA2] | 4.25 ± 0.18 | 4.08 ± 0.16 | – | –
51 | HWRECLFYPALWPQLRICLRVSPA [FBXO33] | 2.42 ± 1.1 | 2.61 ± 0.78 | – | –
52 | KALGSDLDSSLASLVGNLGISGTT [SNAP91] | 3.94 ± 0.2 | 3.93 ± 0.15 | – | –
53 | SPKTNGHIENGPFSLEQQLDDEDD [SRPK2] | 5.522 ± 0.051 | 5.56 ± 0.22 | – | –
54 | YYHRGHVDPANDTFDIDPMVVTDC [MCOLN1] | 3.63 ± 0.21 | 3.78 ± 0.14 | – | –
55 | EVNSAEELEGLIADPDEMRMQALL [FEM1C] | 4.89 ± 0.16 | 5 ± 0.3 | – | –
56 | MRDLYMKNGQGFALVYSITAQSTF [RAP1B] | 2.85 ± 0.79 | 2.78 ± 0.6 | – | –
57 | HLEEPGETQNAFLNERKQASAIKK [CHGB] | 5.11 ± 0.14 | 5.2 ± 0.28 | – | –
58 | MGGAVSAGEDNDELIDNLKEAQYI [PCMTD2] | 5.1 ± 0.15 | 4.95 ± 0.21 | – | –
59 | QPRLSYAEMAEDYPRYPDIHDLDL [CLCN6] | 4.14 ± 0.27 | 4.24 ± 0.14 | – | –
60 | DERVLENVEHYQELKKMVQQSDLG [ALG2] | 4.95 ± 0.38 | 4.8 ± 0.28 | – | –
61 | VLLPETQKRQQLSEDTLTIHGLPT [C22orf31] | 3.73 ± 0.092 | 3.88 ± 0.3 | – | –
62 | MSSHLVEPPPPLHNNNNNCEENEQ [BNIP3L] | 5.56 ± 0.11 | 5.67 ± 0.11 | – | –
63 | EKKESLGAAQEALSIQLQPKETQP [ZNF232] | 5.35 ± 0.35 | 5.5 ± 0.19 | – | –
64 | ATQTERRLDLAAVTLRRGLRSRAS [FAM189A2] | 4.02 ± 0.24 | 4.41 ± 0.2 | – | –
65 | LDQPAFQQLVSFSESGSLGNSSGS [ISL2] | 4.43 ± 0.13 | 4.56 ± 0.075 | – | –

Reference: the supplement of paper PMC10567573
